One assay concerns the target T1, 4H895-AA.
T1 chain: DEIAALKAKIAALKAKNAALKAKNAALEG
Nature of the assay: two-hybrid library CCmax.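 Further: natural log of median RNA to DNA barcode read ratio; higher means stronger binding.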 Conditions: mean of both orientations.

For the next assay, the target named is T2, 4H3782-AA.
T2 chain: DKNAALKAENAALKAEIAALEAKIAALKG
Nature of the assay: two-hybrid library CCmax.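 Further: natural log of median RNA to DNA barcode read ratio; higher means stronger binding.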 Conditions: mean of both orientations.

The target in another assay is T3, 4H3651-AA.
T3 chain: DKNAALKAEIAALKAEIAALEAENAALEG
Description: two-hybrid library CCmax.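 Further: natural log of median RNA to DNA barcode read ratio; higher means stronger binding.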

A further assay addresses T4, 4H486-AA.
T4 chain: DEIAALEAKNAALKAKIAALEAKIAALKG
Nature of the assay: two-hybrid library CCmax.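 Further: natural log of median RNA to DNA barcode read ratio; higher means stronger binding.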 Conditions: mean of both orientations.

The target of the next assay is T5, 4H535-AA.
T5 chain: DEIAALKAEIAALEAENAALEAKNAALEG
Description: two-hybrid library CCmax. Conditions: mean of both orientations.

Another assay addresses T6, 4H58-AA.
T6 chain: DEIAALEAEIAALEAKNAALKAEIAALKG
Nature of the assay: two-hybrid library CCmax. Conditions: mean of both orientations.

Another assay deals with T7, 4H_BCR.
T7 chain: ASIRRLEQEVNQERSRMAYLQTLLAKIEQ
Nature of the assay: two-hybrid library CCmax. Conditions: mean of both orientations.

A further assay deals with T8, 4H3705-AA.
T8 chain: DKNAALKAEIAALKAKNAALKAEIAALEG
Description: two-hybrid library CCmax. Conditions: mean of both orientations.

The next assay deals with GCN2_T. Nature of the assay: two-hybrid library CCmax.
A further assay deals with 4H_GCN4. Nature of the assay: two-hybrid library CCmax. Conditions: mean of both orientations.
4H_GCN4, sequence (chain, as listed by the source): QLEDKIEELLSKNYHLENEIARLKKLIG
In another assay the target is T9, 4H465-AA.
T9 chain: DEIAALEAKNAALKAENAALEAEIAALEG
Description: two-hybrid library CCmax. Conditions: mean of both orientations.

The target of the next assay is T10, 4H_APH.
T10 chain: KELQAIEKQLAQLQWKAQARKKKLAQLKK
Description: two-hybrid library CCmax. Conditions: mean of both orientations.

The target of a further assay is T11, 4H3974-bN.
T11 chain: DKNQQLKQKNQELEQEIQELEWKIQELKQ
Description: two-hybrid library CCNG1.

The next assay concerns the target T12, 4H3817-bN.
T12 chain: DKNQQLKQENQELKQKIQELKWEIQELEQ
Description: two-hybrid library CCNG1.

A further assay has as its target T13, 4H953-bH.
T13 chain: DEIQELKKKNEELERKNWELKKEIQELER
Description: two-hybrid library CCNG1.

For the next assay, the target named is T14, 4H3638-bN.
T14 chain: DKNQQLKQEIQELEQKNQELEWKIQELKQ
Description: two-hybrid library CCNG1.

The target of the next assay is T15, 4H619-bN.
T15 chain: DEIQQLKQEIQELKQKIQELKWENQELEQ
Description: two-hybrid library CCNG1.

For another assay, the target named is T16, 4H850-bN.
T16 chain: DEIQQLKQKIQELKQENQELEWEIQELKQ
Nature of the assay: two-hybrid library CCNG1.

The target in the next assay is T17, 4H906-bN.
T17 chain: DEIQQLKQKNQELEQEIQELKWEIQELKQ
Description: two-hybrid library CCNG1.

The target of the next assay is T18, 4H584-bN.
T18 chain: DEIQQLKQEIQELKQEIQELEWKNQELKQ
Nature of the assay: two-hybrid library CCNG1.

In the next assay the target is T19, 4H570-bN.
T19 chain: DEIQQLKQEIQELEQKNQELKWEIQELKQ
Nature of the assay: two-hybrid library CCNG1.

The target of the next assay is T20, 4H3497-bN.
T20 chain: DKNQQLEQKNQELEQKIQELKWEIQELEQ
Nature of the assay: two-hybrid library CCNG1.

The target of the next assay is T21, 4H3926-bN.
T21 chain: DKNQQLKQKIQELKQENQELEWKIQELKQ
Nature of the assay: two-hybrid library CCNG1.

The target of another assay is T22, 4H626-bN.
T22 chain: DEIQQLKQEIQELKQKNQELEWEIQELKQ
Description: two-hybrid library CCNG1.

The next assay addresses T23, 4H3613-bN.
T23 chain: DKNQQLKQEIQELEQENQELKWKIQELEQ
Nature of the assay: two-hybrid library CCNG1.

For the next assay, the target named is T24, 4H591-bN.
T24 chain: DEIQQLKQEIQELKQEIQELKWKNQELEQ
Nature of the assay: two-hybrid library CCNG1.

Another assay deals with T25, 4H3628-bN.
T25 chain: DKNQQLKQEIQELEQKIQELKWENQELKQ
Nature of the assay: two-hybrid library CCNG1.

For a further assay, the target named is T26, 4H3629-AA.
T26 chain: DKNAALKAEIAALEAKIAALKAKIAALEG
Description: two-hybrid library CCmax. Conditions: mean of both orientations.

A further assay deals with T27, 4H2728-AA.
T27 chain: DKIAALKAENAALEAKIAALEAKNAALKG
Description: two-hybrid library CCmax.

The target in the next assay is T28, 4H3939-AA.
T28 chain: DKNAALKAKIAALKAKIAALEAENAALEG
Description: two-hybrid library CCmax. Conditions: mean of both orientations.

The next assay concerns the target T29, 4H341-AA.
T29 chain: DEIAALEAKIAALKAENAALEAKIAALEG
Nature of the assay: two-hybrid library CCmax. Conditions: mean of both orientations.

The target in another assay is T30, 4H63-AA.
T30 chain: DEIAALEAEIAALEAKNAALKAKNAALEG
Nature of the assay: two-hybrid library CCmax. Conditions: mean of both orientations.

Another assay addresses T31, 4H2961-AA.
T31 chain: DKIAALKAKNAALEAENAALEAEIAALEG
Description: two-hybrid library CCmax. Conditions: mean of both orientations.

For a further assay, the target named is T32, 4H2774-AA.
T32 chain: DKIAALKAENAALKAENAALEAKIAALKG
Nature of the assay: two-hybrid library CCmax. Conditions: mean of both orientations.

The target in another assay is T33, 4H3049-AA.
T33 chain: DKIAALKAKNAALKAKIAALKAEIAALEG
Description: two-hybrid library CCmax. Conditions: mean of both orientations.

Another assay has as its target T34, 4H464-AA.
T34 chain: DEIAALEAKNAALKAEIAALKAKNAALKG
Nature of the assay: two-hybrid library CCmax. Conditions: mean of both orientations.

Another assay addresses T35, 4H3414-AA.
T35 chain: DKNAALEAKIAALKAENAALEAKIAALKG
Nature of the assay: two-hybrid library CCmax. Conditions: mean of both orientations.

The target of a further assay is T36, 4H446-AA.
T36 chain: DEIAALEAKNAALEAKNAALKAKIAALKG
Nature of the assay: two-hybrid library CCmax. Conditions: mean of both orientations.

The target in a further assay is T37, 4H380-AA.
T37 chain: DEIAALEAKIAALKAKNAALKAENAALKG
Nature of the assay: two-hybrid library CCmax. Conditions: mean of both orientations.

The target in the next assay is T38, 4H2903-AA.
T38 chain: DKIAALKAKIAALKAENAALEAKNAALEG
Description: two-hybrid library CCmax. Conditions: mean of both orientations.

In a further assay the target is T39, 4H3969-AA.
T39 chain: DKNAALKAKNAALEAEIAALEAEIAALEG
Nature of the assay: two-hybrid library CCmax. Conditions: mean of both orientations.

Another assay has as its target T40, 4H3129-AA.
T40 chain: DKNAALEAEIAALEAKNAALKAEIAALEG
Nature of the assay: two-hybrid library CCmax. Conditions: mean of both orientations.

The target in another assay is T41, 4H483-AA.
T41 chain: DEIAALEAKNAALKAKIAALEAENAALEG
Description: two-hybrid library CCmax. Conditions: mean of both orientations.

A further assay concerns the target T42, 4H3595-AA.
T42 chain: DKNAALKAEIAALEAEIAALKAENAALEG
Nature of the assay: two-hybrid library CCmax. Conditions: mean of both orientations.

In the next assay the target is T43, 4H3638-bA.
T43 chain: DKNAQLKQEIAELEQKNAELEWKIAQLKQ
Nature of the assay: two-hybrid library CCNG1.

A further assay concerns the target T44, 4H850-bA.
T44 chain: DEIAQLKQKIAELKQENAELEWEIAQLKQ
Description: two-hybrid library CCNG1.

For a further assay, the target named is T45, 4H570-bA.
T45 chain: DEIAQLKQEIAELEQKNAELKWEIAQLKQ
Description: two-hybrid library CCNG1.

The target of a further assay is T46, 4H3631-bA.
T46 chain: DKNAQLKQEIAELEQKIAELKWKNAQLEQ
Description: two-hybrid library CCNG1.

In a further assay the target is T47, 4H3974-bA.
T47 chain: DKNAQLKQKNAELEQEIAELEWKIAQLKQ
Description: two-hybrid library CCNG1.

The target of a further assay is T48, 4H619-bA.
T48 chain: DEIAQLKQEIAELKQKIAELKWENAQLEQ
Nature of the assay: two-hybrid library CCNG1.

Another assay concerns the target T49, 4H3817-bA.
T49 chain: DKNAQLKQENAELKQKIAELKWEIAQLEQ
Nature of the assay: two-hybrid library CCNG1.

The target of the next assay is T50, 4H906-bA.
T50 chain: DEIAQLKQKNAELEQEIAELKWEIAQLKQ
Nature of the assay: two-hybrid library CCNG1.

The target in the next assay is T51, 4H584-bA.
T51 chain: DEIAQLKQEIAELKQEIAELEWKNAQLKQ
Description: two-hybrid library CCNG1.

B1: 4H3651-AA (peptide)
chain: DKNAALKAEIAALKAEIAALEAENAALEG
B1: the interaction score with 4H895-AA was 2.08; with 4H3782-AA, -0.2; in the assay with 4H3651-AA, -0.561; with 4H486-AA it was -0.82; with 4H535-AA it was -1.16; in the assay with 4H58-AA it was -0.388. In addition, the interaction score with 4H_BCR is -1.92; with 4H3705-AA, -1.53; with GCN2_T it was -1.92; in the assay with 4H_GCN4, -1.81; with 4H465-AA, -1.28; in the assay with 4H_APH it was -1.76.

B2: 4H3638-bN (peptide)
chain: DKNQQLKQEIQELEQKNQELEWKIQELKQ
With B2, the interaction score is -0.469 in the assay with 4H3974-bN; -0.442 in the assay with 4H3817-bN; -2.56 with 4H953-bH; 0.732 with 4H3638-bN; -1.26 with 4H619-bN; 0.801 with 4H850-bN. Also, the interaction score is -0.17 with 4H906-bN, 0.234 with 4H584-bN and 0.408 in the assay with 4H570-bN.

B3: 4H3497-bN (peptide)
chain: DKNQQLEQKNQELEQKIQELKWEIQELEQ
As to B3, the interaction score with 4H3497-bN is -1.39; with 4H3926-bN it was -1.9; with 4H626-bN it was -2.23; in the assay with 4H3613-bN, -1.36; in the assay with 4H591-bN, -0.818; with 4H906-bN it was -0.915. The same molecule displayed an interaction score with 4H3628-bN of -0.414.

B4: 4H2728-AA (peptide)
chain: DKIAALKAENAALEAKIAALEAKNAALKG
On to B4, for which the interaction score is -1.28 in the assay with 4H3782-AA; -0.438 in the assay with 4H3629-AA; -0.514 with 4H2728-AA; -1.01 with 4H3939-AA; -0.899 in the assay with 4H341-AA; -0.35 with 4H63-AA. The interaction score was -1.41 with 4H2961-AA; -1.68 with 4H2774-AA; 0.953 with 4H3049-AA; 0.651 in the assay with 4H464-AA; -1.03 with 4H3414-AA; -0.989 with 4H446-AA. Moreover, the interaction score was -1.69 in the assay with 4H380-AA; -1.25 with 4H2903-AA; -1.14 with 4H3969-AA; 0.939 in the assay with 4H3129-AA; 2.24 with 4H483-AA; -1.57 in the assay with 4H3595-AA.

B5: 4H3631-bA (peptide)
chain: DKNAQLKQEIAELEQKIAELKWKNAQLEQ
As to B5, the interaction score was -0.00348 with 4H3638-bA; -0.369 with 4H850-bA; -0.919 with 4H570-bA; 0.816 with 4H3631-bA; 0.937 with 4H3974-bA; -0.0328 with 4H619-bA. For the same molecule, the interaction score with 4H3817-bA was 0.452; in the assay with 4H906-bA, -0.872; with 4H584-bA, 0.0123.

For the origin of these results see article PMC10397247.
